Where a chain is given by its changes, count along the chain named.
B1: ePGDM13 (antibody, V domains shown)
VH: QAQLVQSGPEVRKPGTSVKVSCKNPGNTLTTYDLHWVRQVPGQGLQWMGWISHEGDKKVIVERFKAKVTIDWDRSTNTAYLQLSGLTSEDTAVYYCAKGSKHRLRDYALYDEDGALNWAVDVDYLANLEFWGQGTAVTVSS
VL: DIVLTQSPLSLSVTPGESASISCKSSHSLQHGDRNNYLAWYVQKPGRSPQLLLDLASERASGVPDRFSGSGSEKDFTLKISRVETEDVGTYYCMQGRESPWTFGQGTKVDIK
B2: ePGDM5 (antibody, V domains shown)
VH: B1 VH
VL: B1 VL with I2F, S26D, L53I, E73R, S81D, T85A
B3: ePGDM9 (antibody, V domains shown)
VH: B1 VH
VL: B1 VL with H27Q, Q30I, L53I, E73R
B4: ePGDM9 (antibody, V domains shown)
VH: B1 VH
VL: B1 VL with H27Q, Q30I, L53I, E73R
B5: PGDM1400 (antibody, V domains shown)
VH: B1 VH with A2V, Q3H, V5T, N24A, T30K, Q39S, E89G, E112D, A126S
VL: B1 VL with I2F, L9H, Q30I, L53I, D54Y, E58S, E73D

What was measured:
Test in all cases: cell-based or functional assay
[1] = molecular target: HIV Env of isolate A07412M1.vrc12 (clade D) (HIV)
[2] = molecular target: HIV Env of isolate ZM197M.PB7 (clade C) (HIV)
[3] = molecular target: HIV Env of isolate WITO4160.33 (clade B) (HIV)
[4] = molecular target: HIV Env of isolate AC10.0.29 (clade B) (HIV)
[5] = molecular target: HIV Env of isolate T263-8 (clade AG) (HIV)
[6] = molecular target: HIV Env of isolate 3817.v2.c59 (clade CD) (HIV)
[7] = molecular target: HIV Env of isolate 62357_14_D3_4589 (clade B) (HIV)
[8] = molecular target: HIV Env of isolate T278-50 (clade AG) (HIV)
[9] = molecular target: HIV Env of isolate 1394C9G1(Rev-) (clade C) (HIV)
[10] = molecular target: HIV Env of isolate 6041.v3.c23 (clade AC) (HIV)
[11] = molecular target: HIV Env of isolate P0402_C2_11 (clade G) (HIV)
[12] = molecular target: HIV Env of isolate CNE5 (clade AE) (HIV)
[13] = molecular target: HIV Env of isolate 6480.v4.c25 (clade CD) (HIV)
[14] = molecular target: HIV Env of isolate CAP210.2.00.E8 (clade C) (HIV)
[15] = molecular target: HIV Env of isolate 0815.v3.c3 (clade ACD) (HIV)
[16] = molecular target: HIV Env of isolate Q842.d12 (clade A) (HIV)
[17] = molecular target: HIV Env of isolate 191084B7-19 (clade A) (HIV)
[18] = molecular target: HIV Env of isolate ZM135M.PL10a (clade C) (HIV)
[19] = molecular target: HIV Env of isolate Ce0682_E4 (clade C) (HIV)
[20] = molecular target: HIV Env of isolate X1193_C1 (clade G) (HIV)
[21] = molecular target: HIV Env of isolate Q259.d2.17 (clade A) (HIV)
[22] = molecular target: HIV Env of isolate 6240_08_TA5_4622 (clade B) (HIV)
[23] = molecular target: HIV Env of isolate 928-28 (clade AG) (HIV)
[24] = molecular target: HIV Env of isolate 620345.c01 (clade AE) (HIV)
[25] = molecular target: HIV Env, isolate ZM197M.PB7 (HIV)
[26] = molecular target: HIV Env, isolate P0402_C2_11 (HIV)
[27] = molecular target: HIV Env, isolate X2088_C9 (HIV)
[28] = molecular target: HIV Env, isolate SC422661.8 (HIV)
[29] = molecular target: HIV Env, isolate Ce2060_G9 (HIV)
[30] = molecular target: HIV Env, isolate 7030102001E5(Rev-) (HIV)
[31] = molecular target: HIV Env, isolate 6240_08_TA5_4622 (HIV)
[32] = molecular target: HIV Env, isolate QH0692.42 (HIV)
HIV Env, isolate 246FC1G = HIV Env, isolate 246FC1G (HIV)
HIV Env, isolate CNE58 = HIV Env, isolate CNE58 (HIV)
[33] = molecular target: HIV Env, isolate BF1266.431a (HIV)
[34] = molecular target: HIV Env, isolate HIV-16055-2.3 (HIV)
[35] = molecular target: HIV Env, isolate WEAU_d15_410_5017 (HIV)
HIV Env, isolate T278-50 = HIV Env, isolate T278-50 (HIV)
[36] = molecular target: HIV Env, isolate WITO4160.33 (HIV)
[37] = molecular target: HIV Env, isolate AC10.0.29 (HIV)
[38] = molecular target: HIV Env, isolate TRJO4551.58 (HIV)

Binder	IC50 (µg/ml) with constrains [1] [µg/mL]	IC50 (µg/ml) with constrains [2] [µg/mL]	IC50 (µg/ml) with constrains [3] [µg/mL]	IC50 (µg/ml) with constrains [4] [µg/mL]	IC50 (µg/ml) with constrains [5] [µg/mL]	IC50 (µg/ml) with constrains [6] [µg/mL]	IC50 (µg/ml) with constrains [7] [µg/mL]	IC50 (µg/ml) with constrains [8] [µg/mL]	IC50 (µg/ml) with constrains [9] [µg/mL]	IC50 (µg/ml) with constrains [10] [µg/mL]	IC80 (µg/ml) with constrains [10] [µg/mL]	IC50 (µg/ml) with constrains [11] [µg/mL]	IC50 (µg/ml) with constrains [12] [µg/mL]	IC80 (µg/ml) with constrains [12] [µg/mL]	IC50 (µg/ml) with constrains [13] [µg/mL]	IC50 (µg/ml) with constrains [14] [µg/mL]	IC50 (µg/ml) with constrains [15] [µg/mL]	IC80 (µg/ml) with constrains [15] [µg/mL]	IC50 (µg/ml) with constrains [16] [µg/mL]	IC80 (µg/ml) with constrains [16] [µg/mL]	also measured
B1	0.029	0.06	0.003	0.194	0.025	14	17.4	1.6	0.003	0.007	0.029	0.001	0.001	0.004	> 100	0.135	> 100	> 100	> 100	> 100	IC50 (µg/ml) with constrains [17]: 0.001 µg/mL; IC80 (µg/ml) with constrains [17]: 0.003 µg/mL; IC50 (µg/ml) with constrains [18]: > 100 µg/mL; IC50 (µg/ml) with constrains [19]: 0.011 µg/mL; IC50 (µg/ml) with constrains [20]: 0.095 µg/mL; IC50 (µg/ml) with constrains [21]: 0.037 µg/mL; IC80 (µg/ml) with constrains [21]: 0.15 µg/mL; IC50 (µg/ml) with constrains [22]: 3.16 µg/mL; IC50 (µg/ml) with constrains [23]: 0.019 µg/mL; IC80 (µg/ml) with constrains [23]: 0.077 µg/mL; IC50 (µg/ml) with constrains [24]: > 100 µg/mL; IC80 (µg/ml) with constrains [24]: > 100 µg/mL
B2	0.009	0.035	0.004	0.275	0.019	0.232	9.98	1.06	0.002	0.005	0.021	0.004	0.001	0.004	> 100	0.057	> 100	> 100	> 100	> 100	IC50 (µg/ml) with constrains [17]: 0.001 µg/mL; IC80 (µg/ml) with constrains [17]: 0.005 µg/mL; IC50 (µg/ml) with constrains [18]: > 100 µg/mL; IC50 (µg/ml) with constrains [19]: 0.005 µg/mL; IC50 (µg/ml) with constrains [20]: 0.039 µg/mL; IC50 (µg/ml) with constrains [21]: 0.013 µg/mL; IC80 (µg/ml) with constrains [21]: 0.051 µg/mL; IC50 (µg/ml) with constrains [22]: 2.02 µg/mL; IC50 (µg/ml) with constrains [23]: 0.031 µg/mL; IC80 (µg/ml) with constrains [23]: 0.125 µg/mL; IC50 (µg/ml) with constrains [24]: > 100 µg/mL; IC80 (µg/ml) with constrains [24]: > 100 µg/mL
B3	–	–	–	–	–	–	–	–	–	–	–	–	–	–	–	–	–	–	–	–	IC80 (µg/ml) with constrains [25]: 0.092 µg/mL; IC80 (µg/ml) with constrains [26]: 0.003 µg/mL; IC80 (µg/ml) with constrains [27]: > 100 µg/mL; IC80 (µg/ml) with constrains [28]: 5.33 µg/mL; IC80 (µg/ml) with constrains [29]: 0.538 µg/mL; IC80 (µg/ml) with constrains [30]: > 100 µg/mL; IC80 (µg/ml) with constrains [31]: 6.6 µg/mL; IC80 (µg/ml) with constrains [32]: > 100 µg/mL; IC80 (µg/ml) with constrains (HIV Env, isolate 246FC1G): > 100 µg/mL; IC80 (µg/ml) with constrains (HIV Env, isolate CNE58): 0.008 µg/mL; IC80 (µg/ml) with constrains [33]: 0.008 µg/mL; IC80 (µg/ml) with constrains [34]: 0.006 µg/mL; IC80 (µg/ml) with constrains [35]: 0.009 µg/mL; IC80 (µg/ml) with constrains (HIV Env, isolate T278-50): 2.02 µg/mL; IC80 (µg/ml) with constrains [36]: 0.009 µg/mL; IC80 (µg/ml) with constrains [37]: 0.298 µg/mL; IC80 (µg/ml) with constrains [38]: > 100 µg/mL
B4	0.026	0.023	0.002	0.074	0.015	0.16	9.51	0.506	0.001	0.002	0.007	0.001	0.001	0.003	> 100	0.055	> 100	> 100	> 100	> 100	IC50 (µg/ml) with constrains [17]: 0.002 µg/mL; IC80 (µg/ml) with constrains [17]: 0.006 µg/mL; IC50 (µg/ml) with constrains [18]: > 100 µg/mL; IC50 (µg/ml) with constrains [19]: 0.005 µg/mL; IC50 (µg/ml) with constrains [20]: 0.039 µg/mL; IC50 (µg/ml) with constrains [21]: 0.012 µg/mL; IC80 (µg/ml) with constrains [21]: 0.048 µg/mL; IC50 (µg/ml) with constrains [22]: 1.65 µg/mL; IC50 (µg/ml) with constrains [23]: 0.027 µg/mL; IC80 (µg/ml) with constrains [23]: 0.108 µg/mL; IC50 (µg/ml) with constrains [24]: > 100 µg/mL; IC80 (µg/ml) with constrains [24]: > 100 µg/mL
B5	0.029	0.071	0.003	0.549	0.02	> 100	> 100	5.41	0.003	0.016	0.064	0.007	0.001	0.003	> 100	0.33	> 100	> 100	> 100	> 100	IC50 (µg/ml) with constrains [17]: 0.002 µg/mL; IC80 (µg/ml) with constrains [17]: 0.008 µg/mL; IC50 (µg/ml) with constrains [18]: > 100 µg/mL; IC50 (µg/ml) with constrains [19]: 0.009 µg/mL; IC50 (µg/ml) with constrains [20]: 0.094 µg/mL; IC50 (µg/ml) with constrains [21]: 0.068 µg/mL; IC80 (µg/ml) with constrains [21]: 0.271 µg/mL; IC50 (µg/ml) with constrains [22]: 52.4 µg/mL; IC50 (µg/ml) with constrains [23]: 0.069 µg/mL; IC80 (µg/ml) with constrains [23]: 0.277 µg/mL; IC50 (µg/ml) with constrains [24]: > 100 µg/mL; IC80 (µg/ml) with constrains [24]: > 100 µg/mL

Source: patent publication US20230134571A1 (INTERNATIONAL AIDS VACCINE INITIATIVE, published 2023)
